One substance from patent US20190376034A1 can be followed below.

The target in this test is immune complexes (Dylight 650-labeled BSA + polyclonal rabbit anti-BSA IgG + human serum complement) (bovine) (UniProt P02769). As to the kind of experiment: cell-based or functional assay.
Sequence of UniProt P02769 (P02769 25-607, one chain of several): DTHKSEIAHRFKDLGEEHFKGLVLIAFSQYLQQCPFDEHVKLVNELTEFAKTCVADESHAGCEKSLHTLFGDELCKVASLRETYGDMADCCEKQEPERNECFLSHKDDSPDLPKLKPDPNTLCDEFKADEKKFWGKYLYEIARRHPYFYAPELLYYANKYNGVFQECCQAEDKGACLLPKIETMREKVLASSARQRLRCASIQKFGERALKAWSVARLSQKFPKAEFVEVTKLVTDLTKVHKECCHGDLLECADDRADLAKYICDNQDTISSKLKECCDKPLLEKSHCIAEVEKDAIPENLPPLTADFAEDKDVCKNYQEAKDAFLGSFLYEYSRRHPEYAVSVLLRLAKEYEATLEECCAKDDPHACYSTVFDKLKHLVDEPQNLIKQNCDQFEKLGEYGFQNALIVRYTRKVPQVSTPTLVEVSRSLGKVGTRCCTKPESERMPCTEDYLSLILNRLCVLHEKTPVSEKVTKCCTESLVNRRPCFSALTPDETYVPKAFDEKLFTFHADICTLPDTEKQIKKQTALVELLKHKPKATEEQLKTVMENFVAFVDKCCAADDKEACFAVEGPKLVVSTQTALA

For the substance “complement receptor 1 (CR1) exogenously over-expressed on the surface of cultured erythroid cells (from UniProt P17927 42-2039)”, the uptake of fluorescent immune complexes by activated U937 macrophages in co-culture (flow cytometry) came to 2 fold.
